Test results as given in paper PMC11879086, “Identification and characterization of a human MORC2 DNA binding region that is required for gene silencing” (Nucleic Acids Research, 2024).

How the values were obtained:
[1] = molecular target: T1, MORC2 dephosphorylated (wild-type) (Homo sapiens) (UniProt Q9Y6X9); test: fluorescence anisotropy; conditions: apo; FA/EMSA: 50 mM NaCl, 3 mM MgCl2, 20 mM Na-HEPES pH 7.4, 1 mM TCEP, 10% glycerol, 0.025 mM ZnCl2, 50 ug/ml BSA, room temperature; 1 nM nucleic acid (FA) or 20 nM
T1 sequence: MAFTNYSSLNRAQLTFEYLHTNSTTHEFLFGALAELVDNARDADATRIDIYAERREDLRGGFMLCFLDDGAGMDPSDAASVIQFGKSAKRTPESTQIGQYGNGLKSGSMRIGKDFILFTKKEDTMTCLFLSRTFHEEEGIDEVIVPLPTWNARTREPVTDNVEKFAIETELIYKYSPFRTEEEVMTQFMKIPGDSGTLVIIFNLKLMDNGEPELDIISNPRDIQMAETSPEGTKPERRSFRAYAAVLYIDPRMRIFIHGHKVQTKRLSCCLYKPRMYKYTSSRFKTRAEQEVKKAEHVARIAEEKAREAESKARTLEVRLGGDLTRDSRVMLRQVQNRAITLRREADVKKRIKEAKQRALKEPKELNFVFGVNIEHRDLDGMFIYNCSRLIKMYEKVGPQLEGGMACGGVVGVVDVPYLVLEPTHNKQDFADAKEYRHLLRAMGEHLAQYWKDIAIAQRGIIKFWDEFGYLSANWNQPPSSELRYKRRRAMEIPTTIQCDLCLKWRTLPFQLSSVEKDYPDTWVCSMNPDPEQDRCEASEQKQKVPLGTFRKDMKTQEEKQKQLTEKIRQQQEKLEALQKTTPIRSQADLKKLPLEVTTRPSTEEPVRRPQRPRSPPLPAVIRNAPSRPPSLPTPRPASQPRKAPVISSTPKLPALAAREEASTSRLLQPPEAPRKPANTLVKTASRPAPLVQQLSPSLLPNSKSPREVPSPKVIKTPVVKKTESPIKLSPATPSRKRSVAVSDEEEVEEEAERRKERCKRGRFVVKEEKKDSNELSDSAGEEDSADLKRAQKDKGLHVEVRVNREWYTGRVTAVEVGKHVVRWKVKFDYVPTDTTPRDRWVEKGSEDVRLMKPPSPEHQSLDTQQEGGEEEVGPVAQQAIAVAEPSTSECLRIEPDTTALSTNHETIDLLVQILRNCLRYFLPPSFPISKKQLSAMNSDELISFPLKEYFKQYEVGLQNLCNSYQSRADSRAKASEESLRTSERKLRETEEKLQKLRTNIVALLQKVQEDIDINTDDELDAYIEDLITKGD

[2] = system: MBP-MORC2 wild-type (Homo sapiens); test: pull-down; conditions: FA/EMSA: 50 mM NaCl, 3 mM MgCl2, 20 mM Na-HEPES pH 7.4, 1 mM TCEP, 10% glycerol, 0.025 mM ZnCl2, 50 ug/ml BSA, room temperature; 1 nM nucleic acid (FA) or 20 nM
[3] = molecular target: the molecule itself; test: SEC-MALS; full-length MORC2, 2 mg/ml, 150 mM NaCl, 3 mM MgCl2, 20 mM Na-HEPES pH 7.4, 0.5 mM TCEP, 1.5% glycerol, 0.025 mM ZnCl2, without AMP-PNP; Wyatt 030 column
[4] = molecular target: the molecule itself; test: SEC-MALS; coiled coil 3, 1.5 mg/ml, 150 mM NaCl, 3 mM MgCl2, 20 mM Na-HEPES pH 7.4, 0.5 mM TCEP, 1.5% glycerol, 0.025 mM ZnCl2; Wyatt 010 column
[5] = molecular target: T2, MORC2 dephosphorylated (wild-type) (Homo sapiens, UniProt Q9Y6X9 1-1032); test: fluorescence anisotropy; apo ('5 or less'); FA/EMSA: 50 mM NaCl, 3 mM MgCl2, 20 mM Na-HEPES pH 7.4, 1 mM TCEP, 10% glycerol, 0.025 mM ZnCl2, 50 ug/ml BSA, room temperature; 1 nM nucleic acid (FA) or 20 nM DNA (EMSA); conditions: protein: recombinant; tags: tag removed by TEV; chain copies: 2; label: 5'-6-FAM; blunt
T2 sequence: T1 sequence

[6] = molecular target: T2, MORC2 dephosphorylated (wild-type); test: fluorescence anisotropy; apo; FA/EMSA: 50 mM NaCl, 3 mM MgCl2, 20 mM Na-HEPES pH 7.4, 1 mM TCEP, 10% glycerol, 0.025 mM ZnCl2, 50 ug/ml BSA, room temperature; 1 nM nucleic acid (FA) or 20 nM DNA (EMSA); conditions: protein: recombinant, tags: tag removed by TEV, chain copies: 2, label: 5'-6-FAM
[7] = molecular target: T2, MORC2 dephosphorylated (wild-type); test: fluorescence anisotropy; apo; Hill slope 0.6; FA/EMSA: 50 mM NaCl, 3 mM MgCl2, 20 mM Na-HEPES pH 7.4, 1 mM TCEP, 10% glycerol, 0.025 mM ZnCl2, 50 ug/ml BSA, room temperature; 1 nM nucleic acid (FA) or 20 nM DNA (EMSA); conditions: protein: recombinant; tags: tag removed by TEV; chain copies: 2; label: 5'-6-FAM on oligo 3; four-way junction of 4 strands

## ATATCGATGTATATATCTGACACGTGCCTGGAGACTAGGGAGTAATCCCCTTGGCGGTTAAAACGCGGGGGACAGCGCGTACGTGCGTTTAAGCGGTGCTAGAGCTGTCTACGACCAATTGAGCGGCCTCGGCACCGGGATTCTGATAT (double strand) [Nucleosome on 2-601-2 DNA]
[1]
  Kd: 16 nM

## pUC19 linear
[2]
  binding signal (fold less than circular): 30

B1: full-length human MORC2 (dephosphorylated, wild-type) (natural protein, UniProt Q9Y6X9 1-1032, looked up)
chain: T1 sequence
notes: Cloned into vector 438-B (N-terminal His6-TEV) and into 438-C (N-terminal His6-MBP-TEV); Heterogeneous phosphorylation from insect cells was removed by phosphatase treatment; also called wild-type MORC2; full-length MORC2; not shown: His6, N-terminal, cleaved
[3]
  stoichiometry N: 2

B2: MORC2 coiled coil 3 (residues 900-1032) (domain or fragment, human, UniProt Q9Y6X9 900-1032, looked up)
chain: ALSTNHETIDLLVQILRNCLRYFLPPSFPISKKQLSAMNSDELISFPLKEYFKQYEVGLQNLCNSYQSRADSRAKASEESLRTSERKLRETEEKLQKLRTNIVALLQKVQEDIDINTDDELDAYIEDLITKGD
notes: also called CC3; isolated MORC2 C-terminus; source: E. coli BL21 (DE3) RIL, purified (HisTrap, TEV cleavage, S75 SEC); not shown: His6, N-terminal, cleaved
[4]
  stoichiometry N: 2

B3: 149 bp Widom 601 dsDNA (2-601-2) (dsDNA)
DNA 1: ATATCGATGTATATATCTGACACGTGCCTGGAGACTAGGGAGTAATCCCCTTGGCGGTTAAAACGCGGGGGACAGCGCGTACGTGCGTTTAAGCGGTGCTAGAGCTGTCTACGACCAATTGAGCGGCCTCGGCACCGGGATTCTGATAT
DNA 2: ATATCAGAATCCCGGTGCCGAGGCCGCTCAATTGGTCGTAGACAGCTCTAGCACCGCTTAAACGCACGTACGCGCTGTCCCCCGCGTTTTAACCGCCAAGGGGATTACTCCCTAGTCTCCAGGCACGTGTCAGATATATACATCGATAT
[5]
  Kd: < 5 nM

## ATAGGGTCCATCAGAATTCGGATGAACTCGGTGTG (ssDNA) [Random 35mer ssDNA]
[6]
  Kd: 51 ± 9 nM

## AUAGGGUCCAUCAGAAUUCGGAUGAACUCGGUGUG (ssRNA) [Random 35mer ssRNA]
[6]
  Kd: 49 ± 6 nM

B4: Cruciform DNA (structured_DNA)
DNA 1: CCCTATAACCCCTGCATTGAATTCCAGTCTGATAA
DNA 2: GTAGTCGTGATAGGTGCAGGGGTTATAGGG
DNA 3: AACAGTAGCTCTTATTCGAGCTCGCGCCCTATCACGACTA
DNA 4: TTTATCAGACTGGAATTCAAGCGCGAGCTCGAATAAGAGCTACTGT
[7]
  Kd: 78 ± 12 nM

B5: High AT 35mer dsDNA (dsDNA)
DNA 1: CATCATCAAAGACCAAAAGTAGATAAAACCACAAA
DNA 2: TTTGTGGTTTTATCTACTTTTGGTCTTTGATGATG
[5]
  Kd: < 5 nM

B6: Random 25mer dsDNA (dsDNA)
DNA 1: TCCATCAGAATTCGGATGAACTCGG
DNA 2: CCGAGTTCATCCGAATTCTGATGGA
[6]; blunt
  Kd: 21 ± 2 nM

B7: Random 45mer dsDNA (dsDNA)
DNA 1: GCCGCGTATAGGGTCCATCAGAATTCGGATGAACTCGGTGTGAAG
DNA 2: CTTCACACCGAGTTCATCCGAATTCTGATGGACCCTATACGCGGC
[6]; blunt
  Kd: 11 ± 3 nM

B8: Random 65mer dsDNA (dsDNA)
DNA 1: ATTCTCCAGGGCGGCCGCGTATAGGGTCCATCAGAATTCGGATGAACTCGGTGTGAAGAAAGATC
DNA 2: GATCTTTCTTCACACCGAGTTCATCCGAATTCTGATGGACCCTATACGCGGCCGCCCTGGAGAAT
[5]
  Kd: < 5 nM
